Measured values reported in PMC9482650, “Quantitative fragmentomics allow affinity mapping of interactomes” (Nature Communications, 2022).

Tests used:
Assay in all cases: holdup assay
Design in all cases: key: below the threshold = too weak to quantify, mostly under pKd 3.1 to 4
GOPC, Q9HD26 = biological target: GOPC, Q9HD26
IL16_3, Q14005 = biological target: IL16_3, Q14005
FRMPD2_3, Q68DX3 = biological target: FRMPD2_3, Q68DX3
IL16_4, Q14005 = biological target: IL16_4, Q14005
PCLO, Q9Y6V0 = biological target: T1, PCLO, Q9Y6V0
T1 sequence (Q9Y6V0 4491-4600, limits assumed, looked up): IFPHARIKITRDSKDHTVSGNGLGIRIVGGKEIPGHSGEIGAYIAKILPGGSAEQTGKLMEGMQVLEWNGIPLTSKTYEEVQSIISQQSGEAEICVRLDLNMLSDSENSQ

HTRA4, P83105 = biological target: T2, HTRA4, P83105
T2 sequence (P83105 378-476, limits assumed, looked up): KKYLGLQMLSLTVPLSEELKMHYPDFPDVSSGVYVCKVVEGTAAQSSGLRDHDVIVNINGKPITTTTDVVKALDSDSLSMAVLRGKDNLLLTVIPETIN

ARHGAP21, Q5T5U3 = biological target: T3, ARHGAP21, Q5T5U3
T3 sequence (Q5T5U3 45-169, limits assumed, looked up): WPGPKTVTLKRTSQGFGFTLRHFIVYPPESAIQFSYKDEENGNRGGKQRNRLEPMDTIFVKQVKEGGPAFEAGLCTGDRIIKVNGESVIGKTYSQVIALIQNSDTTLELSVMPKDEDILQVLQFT

MAGI2_4, Q86UL8 = biological target: MAGI2_4, Q86UL8
MAGI1_1, Q96QZ7 = biological target: MAGI1_1, Q96QZ7
LRRC7, Q96NW7 = biological target: T4, LRRC7, Q96NW7
T4 sequence (Q96NW7 1440-1537, limits assumed, looked up): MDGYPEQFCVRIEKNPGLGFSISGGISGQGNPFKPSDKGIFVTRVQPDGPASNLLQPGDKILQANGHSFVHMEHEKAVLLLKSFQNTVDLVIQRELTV

GORASP2, Q9H8Y8 = biological target: GORASP2, Q9H8Y8
LNX1_3, Q8TBB1 = biological target: LNX1_3, Q8TBB1
Inadl_6, Q8NI35 = biological target: Inadl_6, Q8NI35
PARD3B_1, Q8TEW8 = biological target: T5, PARD3B_1, Q8TEW8
T5 sequence (Q8TEW8 196-299, limits assumed, looked up): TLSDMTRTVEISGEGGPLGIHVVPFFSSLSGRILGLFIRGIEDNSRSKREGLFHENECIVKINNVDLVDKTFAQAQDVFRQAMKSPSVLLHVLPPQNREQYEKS

MAGI1_2, Q96QZ7 = biological target: MAGI1_2, Q96QZ7
SHANK1, Q9Y566 = biological target: T6, SHANK1, Q9Y566
T6 sequence (Q9Y566 658-767, limits assumed, looked up): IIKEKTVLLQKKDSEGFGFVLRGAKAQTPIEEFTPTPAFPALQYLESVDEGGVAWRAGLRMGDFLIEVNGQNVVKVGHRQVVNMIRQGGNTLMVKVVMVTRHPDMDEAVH

Inadl_4, Q8NI35 = biological target: Inadl_4, Q8NI35
NOS1, P29475 = biological target: NOS1, P29475
FRMPD4, Q14CM0 = biological target: FRMPD4, Q14CM0
Inadl_9, Q8NI35 = biological target: Inadl_9, Q8NI35
MAGI3_2, Q5TCQ9 = biological target: MAGI3_2, Q5TCQ9
APBA2_2, Q99767 = biological target: T7, APBA2_2, Q99767
T7 sequence (Q99767 654-744, limits assumed, looked up): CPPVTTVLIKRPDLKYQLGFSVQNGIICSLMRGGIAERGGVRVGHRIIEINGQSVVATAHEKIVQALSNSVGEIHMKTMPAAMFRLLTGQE

LNX2_3, Q8N448 = biological target: T8, LNX2_3, Q8N448
T8 sequence (Q8N448 463-564, limits assumed, looked up): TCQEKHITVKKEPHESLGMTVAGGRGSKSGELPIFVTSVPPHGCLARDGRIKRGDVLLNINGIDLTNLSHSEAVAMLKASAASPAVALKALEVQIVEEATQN

DLG2_3, Q15700 = biological target: DLG2_3, Q15700
SYNJ2BP, P57105 = biological target: T9, SYNJ2BP, P57105
T9 sequence (P57105 8-110, limits assumed, looked up): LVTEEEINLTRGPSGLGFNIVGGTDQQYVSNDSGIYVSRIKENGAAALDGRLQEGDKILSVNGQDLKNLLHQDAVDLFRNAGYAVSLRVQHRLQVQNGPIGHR

DLG3_3, Q92796 = biological target: T10, DLG3_3, Q92796
T10 sequence (Q92796 374-475, limits assumed, looked up): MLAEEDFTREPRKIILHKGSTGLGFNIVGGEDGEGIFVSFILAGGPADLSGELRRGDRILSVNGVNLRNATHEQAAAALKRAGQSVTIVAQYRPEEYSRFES

NHERF4_2, Q86UT5 = biological target: NHERF4_2, Q86UT5
[1] = plain residues with an end cap or a label only (N-terminal biotin on a linker: ado-ado, ttds)
[2] = plain residues with an end cap or a label only (N-terminal biotin on a linker: ttds)
[3] = plain residues with an end cap or a label only (N-terminal biotin on a linker: ahx)

NOS1, P29475, sequence (P29475 9-101): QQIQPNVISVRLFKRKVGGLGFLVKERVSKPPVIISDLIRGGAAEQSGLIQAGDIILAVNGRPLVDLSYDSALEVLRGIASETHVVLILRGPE
MAGI1_2, Q96QZ7, sequence (Q96QZ7 456-580): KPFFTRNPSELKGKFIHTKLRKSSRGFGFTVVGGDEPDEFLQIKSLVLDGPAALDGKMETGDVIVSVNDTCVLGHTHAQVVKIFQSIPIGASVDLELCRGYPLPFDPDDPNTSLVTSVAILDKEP
MAGI2_4, Q86UL8, sequence (Q86UL8 772-865): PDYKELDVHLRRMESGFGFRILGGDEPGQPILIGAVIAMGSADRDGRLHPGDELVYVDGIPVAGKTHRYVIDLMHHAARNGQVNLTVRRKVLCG
MAGI3_2, Q5TCQ9, sequence (Q5TCQ9 398-503): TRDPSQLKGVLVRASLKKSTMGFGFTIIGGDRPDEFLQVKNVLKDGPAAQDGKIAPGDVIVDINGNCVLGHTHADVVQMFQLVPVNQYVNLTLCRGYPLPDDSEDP
NHERF4_2, Q86UT5, sequence (Q86UT5 220-308): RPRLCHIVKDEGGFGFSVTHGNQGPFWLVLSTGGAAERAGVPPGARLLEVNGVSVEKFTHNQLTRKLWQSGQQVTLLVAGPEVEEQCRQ
LNX1_3, Q8TBB1, sequence (Q8TBB1 500-596): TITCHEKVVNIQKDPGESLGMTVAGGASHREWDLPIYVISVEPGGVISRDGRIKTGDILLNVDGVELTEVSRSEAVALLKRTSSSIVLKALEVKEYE
FRMPD4, Q14CM0, sequence (Q14CM0 67-160): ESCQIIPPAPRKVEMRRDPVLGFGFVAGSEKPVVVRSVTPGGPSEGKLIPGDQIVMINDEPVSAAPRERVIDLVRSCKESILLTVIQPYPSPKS
Inadl_6, Q8NI35, sequence (Q8NI35 1058-1167): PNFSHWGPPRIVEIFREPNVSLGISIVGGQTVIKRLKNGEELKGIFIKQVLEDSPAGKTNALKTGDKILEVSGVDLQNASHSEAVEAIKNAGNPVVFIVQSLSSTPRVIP
Inadl_4, Q8NI35, sequence (Q8NI35 547-651): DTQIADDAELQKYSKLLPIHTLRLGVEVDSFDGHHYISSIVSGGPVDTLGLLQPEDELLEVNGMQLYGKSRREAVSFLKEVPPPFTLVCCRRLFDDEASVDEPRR
FRMPD2_3, Q68DX3, sequence (Q68DX3 1073-1166): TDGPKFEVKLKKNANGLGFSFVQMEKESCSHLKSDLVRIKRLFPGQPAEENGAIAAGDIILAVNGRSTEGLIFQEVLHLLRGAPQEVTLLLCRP
Inadl_9, Q8NI35, sequence (Q8NI35 1530-1615): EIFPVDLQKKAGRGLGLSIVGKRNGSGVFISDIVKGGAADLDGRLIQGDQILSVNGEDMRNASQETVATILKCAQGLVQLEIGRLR
MAGI1_1, Q96QZ7, sequence (Q96QZ7 1-106): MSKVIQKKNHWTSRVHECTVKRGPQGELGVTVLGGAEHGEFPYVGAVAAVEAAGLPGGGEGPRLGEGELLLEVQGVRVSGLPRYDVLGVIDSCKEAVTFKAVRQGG
IL16_4, Q14005, sequence (Q14005 1229-1329): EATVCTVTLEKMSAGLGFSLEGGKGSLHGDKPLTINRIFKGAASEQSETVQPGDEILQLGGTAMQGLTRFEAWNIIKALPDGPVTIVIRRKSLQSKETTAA
IL16_3, Q14005, sequence (Q14005 1107-1207): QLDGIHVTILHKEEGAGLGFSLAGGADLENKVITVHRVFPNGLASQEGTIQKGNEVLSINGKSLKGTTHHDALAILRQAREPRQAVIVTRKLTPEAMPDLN

Binder: SNAKAVETDV [KCNA4, P22459]
- pKd (GOPC, Q9HD26; [1]): below the threshold
- pKd (IL16_3, Q14005; [1]): below the threshold
- pKd (FRMPD2_3, Q68DX3; [1]): below the threshold
- pKd (IL16_4, Q14005; [1]): below the threshold
- pKd (PCLO, Q9Y6V0; [1]): below the threshold
- pKd (HTRA4, P83105; [1]): below the threshold
- pKd (ARHGAP21, Q5T5U3; [1]): below the threshold
- pKd (MAGI2_4, Q86UL8; [1]): 3.79
- pKd (MAGI1_1, Q96QZ7; [1]): below the threshold
- pKd (LRRC7, Q96NW7; [1]): 3.64
- pKd (GORASP2, Q9H8Y8; [1]): below the threshold
- pKd (LNX1_3, Q8TBB1; [1]): below the threshold
- pKd (Inadl_6, Q8NI35; [1]): below the threshold
- pKd (PARD3B_1, Q8TEW8; [1]): below the threshold
- pKd (MAGI1_2, Q96QZ7; [1]): below the threshold
- pKd (SHANK1, Q9Y566; [1]): below the threshold
- pKd (Inadl_4, Q8NI35; [1]): below the threshold
- pKd (NOS1, P29475; [1]): 3.48
- pKd (FRMPD4, Q14CM0; [1]): below the threshold
- pKd (Inadl_9, Q8NI35; [1]): below the threshold
- pKd (MAGI3_2, Q5TCQ9; [1]): 3.9
- pKd (APBA2_2, Q99767; [1]): below the threshold
- pKd (LNX2_3, Q8N448; [1]): below the threshold
- pKd (DLG2_3, Q15700; [1]): below the threshold
- pKd (SYNJ2BP, P57105; [1]): 4.37
- pKd (DLG3_3, Q92796; [1]): below the threshold
- pKd (NHERF4_2, Q86UT5; [1]): below the threshold

Binder: PPRQRSETQV [HPV82-E6, Q9IR59]
- pKd (GOPC, Q9HD26; [2]): 3.63
- pKd (IL16_3, Q14005; [2]): below the threshold
- pKd (FRMPD2_3, Q68DX3; [2]): below the threshold
- pKd (IL16_4, Q14005; [2]): below the threshold
- pKd (PCLO, Q9Y6V0; [2]): below the threshold
- pKd (HTRA4, P83105; [2]): below the threshold
- pKd (ARHGAP21, Q5T5U3; [2]): below the threshold
- pKd (MAGI2_4, Q86UL8; [2]): 4.72
- pKd (MAGI1_1, Q96QZ7; [2]): below the threshold
- pKd (LRRC7, Q96NW7; [2]): below the threshold
- pKd (GORASP2, Q9H8Y8; [2]): 4.12
- pKd (LNX1_3, Q8TBB1; [2]): below the threshold
- pKd (Inadl_6, Q8NI35; [2]): below the threshold
- pKd (PARD3B_1, Q8TEW8; [2]): below the threshold
- pKd (MAGI1_2, Q96QZ7; [2]): 5.54
- pKd (SHANK1, Q9Y566; [2]): below the threshold
- pKd (Inadl_4, Q8NI35; [2]): below the threshold
- pKd (NOS1, P29475; [2]): 3.88
- pKd (FRMPD4, Q14CM0; [2]): below the threshold
- pKd (Inadl_9, Q8NI35; [2]): below the threshold
- pKd (MAGI3_2, Q5TCQ9; [2]): 5.68
- pKd (APBA2_2, Q99767; [2]): below the threshold
- pKd (LNX2_3, Q8N448; [2]): below the threshold
- pKd (DLG2_3, Q15700; [2]): 4.9
- pKd (SYNJ2BP, P57105; [2]): 4.86
- pKd (DLG3_3, Q92796; [2]): 4.63
- pKd (NHERF4_2, Q86UT5; [2]): below the threshold

Binder: SKKNELFSNL [NHERF1, O14745]
- pKd (GOPC, Q9HD26; [3]): below the threshold
- pKd (IL16_3, Q14005; [3]): below the threshold
- pKd (FRMPD2_3, Q68DX3; [3]): below the threshold
- pKd (IL16_4, Q14005; [3]): below the threshold
- pKd (PCLO, Q9Y6V0; [3]): below the threshold
- pKd (HTRA4, P83105; [3]): below the threshold
- pKd (ARHGAP21, Q5T5U3; [3]): below the threshold
- pKd (MAGI2_4, Q86UL8; [3]): below the threshold
- pKd (MAGI1_1, Q96QZ7; [3]): below the threshold
- pKd (LRRC7, Q96NW7; [3]): below the threshold
- pKd (GORASP2, Q9H8Y8; [3]): below the threshold
- pKd (LNX1_3, Q8TBB1; [3]): below the threshold
- pKd (Inadl_6, Q8NI35; [3]): below the threshold
- pKd (PARD3B_1, Q8TEW8; [3]): below the threshold
- pKd (MAGI1_2, Q96QZ7; [3]): below the threshold
- pKd (SHANK1, Q9Y566; [3]): below the threshold
- pKd (Inadl_4, Q8NI35; [3]): below the threshold
- pKd (NOS1, P29475; [3]): below the threshold
- pKd (FRMPD4, Q14CM0; [3]): below the threshold
- pKd (Inadl_9, Q8NI35; [3]): below the threshold
- pKd (MAGI3_2, Q5TCQ9; [3]): below the threshold
- pKd (APBA2_2, Q99767; [3]): below the threshold
- pKd (LNX2_3, Q8N448; [3]): below the threshold
- pKd (DLG2_3, Q15700; [3]): below the threshold
- pKd (SYNJ2BP, P57105; [3]): below the threshold
- pKd (DLG3_3, Q92796; [3]): below the threshold
- pKd (NHERF4_2, Q86UT5; [3]): below the threshold
